From the supplement of paper PMC9732359
± gives the uncertainty stated by the source.

Assay: protein stability index of a GFP-peptide fusion (yeast GPS) (PSI 1-4); higher = more stable; sorted into four equal gates, so the index is relative within each strain
In short: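 Each library plasmid carries Cherry plus GFP with a tiled 17-residue yeast protein peptide fused downstream, and the pooled library was carried in yeast. Mid-log cultures in leucine-free medium were sorted into four equal gates by GFP/Cherry ratio. Reads from Illumina sequencing of PCR-amplified plasmids from each gate were assigned to strains by barcodes. Per peptide, the protein stability index was computed as the summed products of gate read frequency and gate number.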

Sequence	protein stability index (doa10∆)	protein stability index (pdr5∆)	protein stability index (san1∆)	protein stability index (ubr1∆)
PEIPLVVSTDLESIQKT [RPL4A]	2.96 ± 0.071	3.05 ± 0.086	3.16 ± 0.052	2.81 ± 0.062
NTDLKDIIQGNPLMYSG [PCI8]	2.84 ± 0.051	3.13 ± 0.085	3.21 ± 0.11	3.2 ± 0.086
SLEEIIAEGQKKFATVP [RPP2B]	2.77 ± 0.061	2.89 ± 0.058	2.93 ± 0.061	2.59 ± 0.04
EFLEDTSRTIVRNVKGP [RPS28A]	–	–	3.15 ± 0.29	3.03 ± 0.16
LPAYSGEIGDFFSSDWR [POP1]	3.04 ± 0.11	3.32 ± 0.089	3.24 ± 0.068	3.16 ± 0.096
DDIVSHQGTPLGSHSSS [REC8]	3.2 ± 0.15	3.37 ± 0.12	3.04 ± 0.16	3.3 ± 0.095
YSPTSPSYSPTSPGYSP [RPO21]	2.8 ± 0.044	2.94 ± 0.037	2.95 ± 0.039	2.95 ± 0.034
PGKGILTTAREHHSSVK [FAS2]	3.07 ± 0.087	3.32 ± 0.076	3.17 ± 0.049	3.11 ± 0.067
RSPRVVTNALDNIDEKV [NUT1]	2.92 ± 0.056	2.79 ± 0.054	2.77 ± 0.058	3.03 ± 0.058
CSGSGMGGVSALRGMFK [FAS2]	3.64 ± 0.097	3.68 ± 0.08	3.37 ± 0.096	3.43 ± 0.067
MGNTKVHCRISCQIAQP [RRP45]	1.64 ± 0.059	2.04 ± 0.079	1.56 ± 0.1	1.91 ± 0.056
EITDASLNLQYVNYEIS [YML103C/NUP188]	2.62 ± 0.05	2.96 ± 0.067	2.31 ± 0.072	2.79 ± 0.049
DKPLLKAGRAFHKYRLK [RPL2A]	2.96 ± 0.085	3.07 ± 0.058	2.16 ± 0.059	2.04 ± 0.061
VSSSLYERRFGPYFVGP [PUP3]	2.79 ± 0.13	2.88 ± 0.16	2.62 ± 0.13	2.95 ± 0.095
LKLCVQELEKRMPMDFK [PRE1]	3.15 ± 0.19	3.34 ± 0.099	3.18 ± 0.054	3.37 ± 0.085
TETKRLVVIRFGRKNDR [DIB1]	2.87 ± 0.11	2.24 ± 0.089	2.03 ± 0.12	2.89 ± 0.065
VTSKVRNAEFKVSKNST [YMR153W/NUP53]	3.08 ± 0.15	3.49 ± 0.19	2.98 ± 0.11	3.28 ± 0.29
EKRYDDKLLDFIRYDVK [CSN12]	3.3 ± 0.063	3.25 ± 0.066	3.22 ± 0.046	3.17 ± 0.066
DNIRYATALQTCAGGRL [SMC2]	2.31 ± 0.086	3.02 ± 0.083	2.8 ± 0.11	1.62 ± 0.058
NFEKILLTCYELEKKYH [SRB8]	1.98 ± 0.1	2.34 ± 0.1	–	3.71 ± 0.21
ITHNTNITDNLFQELSK [GRR1]	3.27 ± 0.091	3.55 ± 0.13	3.62 ± 0.22	3.18 ± 0.16
IVAQSEVEVSTRDLFDL [RPO31]	3.07 ± 0.074	3.34 ± 0.083	3.3 ± 0.059	3.2 ± 0.067
LQLASLQQKQRDLILKK [SMC3]	2.49 ± 0.14	2.46 ± 0.16	3.1 ± 0.097	2.68 ± 0.13
TGVSVEAVDDVFQAKMM [RPN11]	2.8 ± 0.14	3.06 ± 0.12	2.92 ± 0.082	2.87 ± 0.13
KGDGMTSAVASIGSIYQ [RPN1]	2.67 ± 0.28	3.14 ± 0.2	2.57 ± 0.23	3.03 ± 0.14
NFIEPGINQILGNEKNQ [CDC53]	–	–	–	2.75 ± 0.2

Sequence	protein stability index (doa10∆)	protein stability index (pdr5∆)	protein stability index (san1∆)	protein stability index (ubr1∆)
LIIKYQKYWESMRIQIL [GAL11]	1.49 ± 0.064	1.95 ± 0.076	1.71 ± 0.087	1.65 ± 0.06
IEKVDRENMICKIDFQK [RRI2]	3.04 ± 0.11	3.03 ± 0.1	3.18 ± 0.063	3.15 ± 0.065
YALQSVKLPRAFIDERA [RRP43]	–	1.33 ± 0.17	1.3 ± 0.24	1.33 ± 0.075
VQVRSVMDPITSKRKAE [DIS3]	2 ± 0.13	2.41 ± 0.13	2.92 ± 0.079	2.79 ± 0.12
EREQPQENKNIDDENIT [SRB4]	3.5 ± 0.055	3.19 ± 0.071	3.07 ± 0.051	3.65 ± 0.084
DNEEASVKLDLQDDEDH [BRN1]	2.99 ± 0.1	3.45 ± 0.084	3.05 ± 0.071	3.35 ± 0.097
FMLSDDEGMESIEMEEE [RRI2]	2.59 ± 0.22	3.78 ± 0.29	3.38 ± 0.097	–
DRFKYRSVDRAGRKFKS [POP4]	3.04 ± 0.2	3.24 ± 0.18	3.52 ± 0.097	3.55 ± 0.16
TELSNKETTIEKLSSEI [YIL149C/MLP2]	3.03 ± 0.073	2.96 ± 0.097	3.21 ± 0.072	3.13 ± 0.051
VDDSMELCGQIRSERFK [ITC1]	2.84 ± 0.072	3 ± 0.067	3.28 ± 0.086	2.94 ± 0.13
EFLPLSLHILMIFWNDI [SRB8]	1.36 ± 0.037	1.34 ± 0.04	1.35 ± 0.062	1.89 ± 0.036
LQPVIPGGAASKSVPTP [SNF5]	2.93 ± 0.13	3.28 ± 0.062	3.12 ± 0.049	3.13 ± 0.053
FVKVTKATLELLKLIEP [RPL7A]	3.06 ± 0.11	2.87 ± 0.096	2.62 ± 0.15	2.91 ± 0.13
NTTQDNGGDKELEMIGG [YCS4]	3.26 ± 0.17	3.06 ± 0.17	2.46 ± 0.2	3.26 ± 0.23
TDWDPQFNAITGLNGSG [SMC2]	2.94 ± 0.19	–	2.3 ± 0.19	–
VMLRLLLVVIFKKTLRS [SRB4]	1.59 ± 0.068	1.56 ± 0.057	1.25 ± 0.098	1.23 ± 0.088
KSKILRKVVFPFQLDVA [UBP6]	2.23 ± 0.09	2.39 ± 0.089	2.65 ± 0.11	2.44 ± 0.057
DDSRNPDCKIKIAHGTT [PRE2]	2.63 ± 0.086	2.77 ± 0.067	2.72 ± 0.076	2.84 ± 0.078
PPTDTNVEESVSKADIL [POP5]	3.21 ± 0.12	3.18 ± 0.12	2.79 ± 0.069	3.05 ± 0.095
KTPLLKQYLSASFSLKN [RPL6A]	2.01 ± 0.051	1.98 ± 0.054	2.25 ± 0.059	2.27 ± 0.042
TLIVVPFNQGSKQDVEA [FAS2]	2.87 ± 0.12	3.2 ± 0.12	3.13 ± 0.09	3.3 ± 0.12
PSDVNIDVMKSQIIPLM [SNU114]	2.15 ± 0.1	1.82 ± 0.053	2.65 ± 0.07	1.82 ± 0.058
SGSTEKAFKICEAAVEI [SIR3]	2.97 ± 0.11	2.71 ± 0.11	2.84 ± 0.15	3.18 ± 0.16
FSSNERYFFWLQEKNSG [RPN13]	1.27 ± 0.048	1.65 ± 0.072	2.18 ± 0.076	2.25 ± 0.055
ISRNGDTSYKIDGKTVS [SMC1]	2.72 ± 0.14	3.01 ± 0.074	2.9 ± 0.064	3.29 ± 0.081
YGKVYKAKRQINSGTNS [SSN3]	2.23 ± 0.066	2.04 ± 0.058	2.49 ± 0.094	2.68 ± 0.053
